From US10344330B2, “Glatiramer acetate response biomarker mRNA potency assay” (Mylan Inc., priority 2013, dated 2019) come the findings set out here.

Experiment [1] relates to mouse IL-5 mRNA in primary LN cells. In words: Mouse IL-5 mRNA in LN cells of immunized SJL/J mice stimulated with Copaxone and GMA lots, normalized to Actβ or GAPDH (Example V). Format: cell-based. How it is done: A real-time polymerase chain reaction method was used to measure the expression of cytokine mRNA in GA-stimulated LN cells from GA-immunized SJL/J mice. Normalization of expression with two different housekeeping genes, GAPDH and β-actin, was tested.
Each group consisted of six female SJL/J mice immunized by injection in all four footpads with a total dose of 250 μg of one lot of GA, or mannitol and no GA. Three Copaxone batches and three GMA batches were used to immunize the mice. CFA was included in both GA and mannitol immunizations. Ten days following immunization, LN cell samples isolated from the immunized mice were each stimulated with a concentration of a Copaxone lot and a GMA lot. A positive control of 2.5 μg/mL ConA treated LN cells and a negative control of 10 μg/mL MBP treated cells were included in each group.
In the initial run, a lack of reproducibility was observed when cytokine mRNA levels were normalized to GAPDH mRNA levels. Therefore, the Q-PCR analysis was repeated on the samples, measuring levels of IL-2, IL-4, IL-5, and IL-13, using both GAPDH and β-actin as reference gene.
The RNA isolation and analysis procedures were similar to those described in Example IV. The expression levels of mouse IL-2, IL-4, IL-5 and IL-13 mRNA observed are summarized below in Tables 29 to 36. As shown by the data in Tables 30, 32, 34 and 36, a lack of reproducibility in the findings again was observed when cytokine mRNA levels were normalized to GAPDH mRNA for all cytokines except IL-13.

Experiment [2] concerns mouse IL-10 mRNA in primary LN cells. Kind of experiment: Validation: mouse IL-10 mRNA by real-time PCR in LN cells of GA-immunized SJL/J mice (Example IV). The class given is cell-based. Particulars: for IL-10 mRNA Fold Change: normalized to GAPDH. How it is done: Three experiments were conducted using one batch of GA (Mylan GMA). The primary LN cells were stimulated by incubation with 6 concentrations (0.3 to 20 μg/mL) of the GA for 6 hours at 37° C. Total RNA was isolated from LN cells stimulated with GA or controls. cDNA was synthesized from the RNA and the mRNA levels of seven mouse cytokines, IL-2, IL-4, IL-5, IL-10, IL-13, interferon (IFN)-γ and tumor necrosis factor (TNF)-α, were quantitatively measured by a real-time PCR method.
Female SJL/J mice at 8-9 weeks of age were immunized by injection into four footpads using a 1 mL syringe with a 27-G, ½-inch needle. Each mouse received a total injection volume of 0.1 mL of GMA emulsified in CFA (about 10 μL into each of the front footpads and 40 μL into each of the hind footpads). Animals were immunized on Day 0. After injection, animals were placed back in their cages and housed ≤6 animals per cage.
Immunized animals were sacrificed by cervical dislocation on Day 10 following immunization. […] After centrifugation at about 200×g for 10 minutes at 4° C., the cell pellet was re-suspended in 40 mL of DCCM-1 medium for cell counting. A Trypan blue exclusion method was used to determine the cell density of viable cells in the suspension. After cell counting, the LN cells were suspended in enriched DCCM-1 medium at density of 7.5×10^6 cells/mL. LN cells (0.12 mL) were plated into each well of 96-well tissue culture plates.
Dilutions of GA (Mylan GMA) were prepared using enriched DCCM-1 medium as the diluent. GA dilutions (0.12 mL) were added in the assigned wells of 96-well tissue culture plates. The same volume of LN cells (0.12 mL) isolated from immunized animals was added to the assigned wells. A positive control and a negative control were always performed in the same assay by treating LN cells with 2.5 μg/mL ConA and 10 μg/mL MBP, respectively. The LN cells with mock stimulation protocols (enriched DCCM-1 medium) were used to monitor the background mRNA level of a cytokine. The plates were incubated at 37° C. in a humidified 5% CO2 incubator for 6 hr.
At the end of incubation time, culture medium from stimulated cells was removed by aspiration and the cells were lysed using Qiagen or Promega lysis buffer. The lysate was transferred to an RNeasy Mini column (Qiagen) or wells of the SV 96 Binding Plate (Promega) for RNA isolation and cDNA synthesis. All tested samples were run in triplicate.
The SV 96 Total RNA Isolation System (Promega; Cat. No. Z3505) was used for total RNA isolation. Assay procedures were carried out according to each manufacturer's protocol. RNA samples were stored at −70° C. until use. […] The assay procedure was carried out according to the manufacturer's protocol.
The plate was centrifuged at 2000 rpm for 2 minutes at 4° C. to spin down the contents and eliminate air bubbles. Samples were prepared and run in a 96-well plate using a Life Technologies Real-Time PCR system (previously Applied Biosystems; Model No. 7500) according to the manufacturer's recommendation. The mix for the reference gene was prepared in the same way using the reference gene primer.
A relative quantitation method was used to analyze changes in mIL-2, mIL-4, mIL-5, mIL-10, mIL-13, mIFN-γ and TNF-α expression in GA treated samples relative to the untreated control (Enriched DCCM-1 treated) samples using the following program:
Levels of mouse cytokine amplicons were normalized to an internal probe level (GAPDH) from the same samples. The following equations were used to calculate the relative increase in response to GA stimulation compared to the control sample (Enriched DCCM1 sample): […]
In general terms: In qPCR the cycle at which signal appears reflects the starting amount.

Where only a bound is given, the exact number is not on record here.

In the case of “Concanavalin A [ConA, reference compound]”, the “IL-5 mRNA Fold Change” value was 19.1 fold in experiment [1] (Group 3 (mice immunized with GA-M2 Mylan GMA), 2.5 μg/mL, normalized to Actβ); 27.8 fold in experiment [1] (Group 4 (mice immunized with GA-C2 Copaxone), 2.5 μg/mL, normalized to Actβ); 21.1 fold in experiment [1] (Group ID 3, 2.5 μg/mL, normalized to GAPDH); 59.4 fold in experiment [1] (Group ID 4, 2.5 μg/mL, normalized to GAPDH). Moreover, the “IL-10 mRNA Fold Change” value in experiment [2] (Experiment 1, 2.5 μg/mL) was 1.2 fold; in experiment [2] (Experiment 2, 2.5 μg/mL) it was 0.5 fold; in experiment [2] (Experiment 3, 2.5 μg/mL) it was 1.6 fold.

B1: MBP: myelin basic protein, a negative control (protein, UniProt P02686 1-304, looked up)
Myelin basic protein: MGNHAGKRELNAEKASTNSETNRGESEKKRNLGELSRTTSEDNEVFGEADANQNNGTSSQDTAVTDSKRTADPKNAWQDAHPADPGSRPHLIRLFSRDAPGREDNTFKDRPSESDELQTIQEDSAATSESLDVMASQKRPSQRHGSKYLATASTMDHARHGFLPRHRDTGILDSIGRFFGGDRGAPKRGSGKDSHHPARTAHYGSLPQKSHGRTQDENPVVHFFKNIVTPRTPPPSQGKGRGLSLSRFSWGAEGQRPGFGYGGRASDYKSAHKGFKGVDAQGTLSKIFKLGGRDSRSGSPMARR
Consider B1, for which the “IL-5 mRNA Fold Change” value in experiment [1] (Group 3 (mice immunized with GA-M2 Mylan GMA), 10 μg/mL, normalized to Actβ) is listed as 0.6 fold; in experiment [1] (Group 4 (mice immunized with GA-C2 Copaxone), 10 μg/mL, normalized to Actβ) it was 1.1 fold; in experiment [1] (Group ID 3, 10 μg/mL, normalized to GAPDH) it was 0.6 fold; in experiment [1] (Group ID 4, 10 μg/mL, normalized to GAPDH) it was 2.3 fold. The “IL-10 mRNA Fold Change” value stood at 1.1 fold in experiment [2] (Experiment 1, 10 μg/mL); 0.7 fold in experiment [2] (Experiment 2, 10 μg/mL); 1.0 fold in experiment [2] (Experiment 3, 10 μg/mL). Also, the “IL-10 mRNA expression level in response to MBP treatment” value in experiment [2] (SJL/J, MBP 10 μg/mL, all PCR runs) was not above 2 fold.
